Results taken from the supplement of paper PMC10266784.

B1: library; numbered along this chain (parent)
chain: MAAAAAAAAEQQSSNGPVKKSMREKAVERRSVNKEHNSNFKAGYIPIDEDRLHKTGLRGRKGNLAICVIILLFILAVINLIITLVIWAVIRIGPNGCDSMEFHESGLLRFKQVSDMGVIHPLYKSTVGGRRNENLVITGNNQPIVFQQGTTKLSVENNKTSITSDIGMQFFDPRTQNILFSTDYETHEFHLPSGVKSLNVQKASTERITSNATSDLNIKVDGRAIVRGNEGVFIMGKTIEFHMGGNMELKAENSIILNGSVMVSTTRLPSSSSGDQLGSGDWVRYKLCMCADGTLFKVQVTSQNMGCQISDNPCGNTH

Variants of: B1
Test: SGCB cell-surface expression functional score (HA stain, bin4 vs bin1, normalised to synonymous) (log10 ratio); higher = more cell-surface SGCB (functional)
How it was run: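 Using lentivirus at MOI <0.1, HA-tagged, YFP-fused human beta-sarcoglycan codon-saturation libraries were put into HEK293 cells with stable alpha-, gamma- and delta-sarcoglycan expression, in duplicate transductions. YFP-positive cells were collected by sorting 72 hours later, grown 5–7 days, stained on ice with Alexa Fluor 647 anti-HA, fixed, sorted into four 5% intensity bins and amplicon-sequenced. The functional score takes the median, across codons and transductions, of the log ratio of highest-bin to lowest-bin variant frequency. Within each section, synonymous variants were scaled to mean 0, SD 0.5.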

SGCB cell-surface expression functional score (log10): each site, then its substitutions
A251: D -0.84, C 0.59, F -0.98, E -1.22, H 0.44, V 0.46, K -1.77, S 0.32, R -1.16, T 0.52, Y -1.33, G 0.05, I -0.87, M 0, N 0.23, P 0.04, L -1.06, Q -2.02, W -1.85
L257: I 0.12, V 0.45, Y 0.3, M 0, S -1.19, Q -1.3, N -0.61, F 0.54, P -0.89, D -0.5, T -0.91, G -0.1, A -0.23, C -0.27, R -1.52, E -0.43, H -0.81, W 0.82, K -0.27
I256: W -0.179, Y 0.42, L 0.37, N 1.09, S 0.62, E 0.36, P -0.12, Q -0.26, T 0.37, C -0.43, R 0.05, M 0.29, A -0.2, F 0.01, V 0.31, G 0.26, D 0.02, H 0.01, K 0.15
I255: D -0.53, E -0.85, C 0.39, H -1.4, F 0.37, M 0.52, W -1.77, G -1.03, Q -0.37, R -0.91, P -0.82, T -0.76, V 0.07, A 0.2, Y -1.08, S -0.08, N -1.5, K -0.13, L 0.57
N258: G 0.43, D 0.39, T -0.05, L 0.61, I -0.1, R 0.61, K 0.55, P -1.25, H 0.33, Y 0.03, F -0.09, E 0, S 0.66, M 0.62, C 0.74, Q 0.63, V 0.3, W 0, A 0.1
N253: L 0.96, R 0.29, Y 0.45, S 0.59, A 0.49, P -0.52, F 0.83, W 0.29, D 0.58, G 0.43, H 0.8, T 0.39, Q 1.07, I 0, C 0.55, K 0.46, V 0.9, M -0.117, E 0.76
E252: W 0.117, F 1.22, K 0.57, H 1.12, Q 0.64, S 0.51, G 0.39, R 0.34, L 0.88, V 0.88, I 1.01, D -0.26, P 0.32, N 1.08, T 0.88, Y 1.05, A 0.53, C 0.5, M 0.8
K250: G 0.55, V 0.37, F 1.23, T 0.83, I 1, S 0.33, P -0.39, Y 1.05, R 0.59, Q 0.65, L 0.54, H 0.87, W 0.02, M 0.98, N 0.48
S254: V 0.02, A 0.25, H 0.41, M 0.79, C 0.55, D -0.152, Y 0.7, P -0.77, K 0.05, F 0.96, R 0.12, E 1.37, L 0.74, N 0.66, T 0.67, I 0.12, Q 0.92, G 0.08, W 0.38
